Measurements taken from EP4763221A1 (Akeso Biopharma Co., Ltd., dated 2025).

Experiments:
human HER3-his [1] = target: T1, human HER3-his (human, UniProt P21860 20-643); experiment: indirect ELISA, huHER3-his coated at 0.5 µg/mL; antibody 0 nM (blank, background); replicate 2
T1 construct: Coating antigen of the ELISA; also called huHER3-his; antigen human HER3-his; not shown: his tag

[2] = target: T2, HER3 on SK-BR-3 cell surface (UniProt P21860 20-1342, limits assumed); experiment: FACS on SK-BR-3 cells, anti-human IgG Fc-Alexa Fluor 647 detection
T2 construct: whole, on cells; The target is the HER3 carried on SK-BR-3 cells; also called surface HER3 of SK-BR-3 cells; SK-BR-3 cells expressing HER3

human HER3-his [3] = target: T1, human HER3-his; experiment: indirect ELISA, huHER3-his coated at 0.5 µg/mL; antibody 0.004 nM; replicate 1
human HER3-his [4] = target: T1, human HER3-his; experiment: indirect ELISA, huHER3-his coated at 0.5 µg/mL; antibody 0.001 nM; replicate 2
human HER3-his [5] = target: T1, human HER3-his; experiment: indirect ELISA, huHER3-his coated at 0.5 µg/mL; antibody 0.001 nM; replicate 1
human HER3-his [6] = target: T1, human HER3-his; experiment: indirect ELISA, huHER3-his coated at 0.5 µg/mL; antibody 0.037 nM; replicate 2
human HER3-his [7] = target: T1, human HER3-his; experiment: indirect ELISA, huHER3-his coated at 0.5 µg/mL; antibody 0.012 nM; replicate 2
human HER3-his [8] = target: T1, human HER3-his; experiment: indirect ELISA, huHER3-his coated at 0.5 µg/mL; antibody 0.333 nM; replicate 1
human HER3-his [9] = target: T1, human HER3-his; experiment: indirect ELISA, huHER3-his coated at 0.5 µg/mL; antibody 0.012 nM; replicate 1
human HER3-his [10] = target: T1, human HER3-his; experiment: indirect ELISA, huHER3-his coated at 0.5 µg/mL; antibody 1.000 nM; replicate 1
human HER3-his [11] = target: T1, human HER3-his; experiment: indirect ELISA, huHER3-his coated at 0.5 µg/mL, goat anti-human IgG Fc-HRP
human HER3-his [12] = target: T1, human HER3-his; experiment: indirect ELISA, huHER3-his coated at 0.5 µg/mL; antibody 0.004 nM; replicate 2
human HER3-his [13] = target: T1, human HER3-his; experiment: indirect ELISA, huHER3-his coated at 0.5 µg/mL; antibody 0.111 nM; replicate 1
human HER3-his [14] = target: T1, human HER3-his; experiment: indirect ELISA, huHER3-his coated at 0.5 µg/mL; antibody 0.111 nM; replicate 2
human HER3-his [15] = target: T1, human HER3-his; experiment: indirect ELISA, huHER3-his coated at 0.5 µg/mL; antibody 0.037 nM; replicate 1
human HER3-his [16] = target: T1, human HER3-his; experiment: indirect ELISA, huHER3-his coated at 0.5 µg/mL; antibody 1.000 nM; replicate 2
human HER3-his [17] = target: T1, human HER3-his; experiment: indirect ELISA, huHER3-his coated at 0.5 µg/mL; antibody 0.333 nM; replicate 2
human HER3-his [18] = target: T1, human HER3-his; experiment: indirect ELISA, huHER3-his coated at 0.5 µg/mL; antibody 0 nM (blank, background); replicate 1

B1: anti-HER3 monoclonal antibody patritumab (antibody, human IgG1, kappa, V domains shown)
VH: QVQLQQWGAGLLKPSETLSLTCAVYGGSFSGYYWSWIRQPPGKGLEWIGEINHSGSTNYNPSLKSRVTISVETSKNQFSLKLSSVTAADTAVYYCARDKWTWYFDLWGRGTLVTVSS
VL: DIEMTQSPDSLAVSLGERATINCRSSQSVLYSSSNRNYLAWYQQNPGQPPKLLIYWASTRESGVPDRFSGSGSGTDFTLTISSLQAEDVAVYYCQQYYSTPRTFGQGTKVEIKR
notes: IgG1/kappa, expressed in 293F cells; also called HER3-targeted monoclonal antibody patritumab
Q: What does the source list for B1?
A: absorbance at 450 nm (human HER3-his [1]): 0.087 OD450; EC50 [2]: 8.48 nM; absorbance at 450 nm (human HER3-his [3]): 0.87 OD450; absorbance at 450 nm (human HER3-his [4]): 0.394 OD450; absorbance at 450 nm (human HER3-his [5]): 0.382 OD450; absorbance at 450 nm (human HER3-his [6]): 2.57 OD450; absorbance at 450 nm (human HER3-his [7]): 1.77 OD450; absorbance at 450 nm (human HER3-his [8]): 2.89 OD450; absorbance at 450 nm (human HER3-his [9]): 1.78 OD450; absorbance at 450 nm (human HER3-his [10]): 2.87 OD450; EC50 (human HER3-his [11]): 0.009 nM; absorbance at 450 nm (human HER3-his [12]): 0.872 OD450; absorbance at 450 nm (human HER3-his [13]): 2.83 OD450; absorbance at 450 nm (human HER3-his [14]): 2.79 OD450; absorbance at 450 nm (human HER3-his [15]): 2.57 OD450; absorbance at 450 nm (human HER3-his [16]): 2.84 OD450; absorbance at 450 nm (human HER3-his [17]): 2.86 OD450; absorbance at 450 nm (human HER3-his [18]): 0.091 OD450
